Experimental data taken from patent US7033773B1, “Screening assays for G protein coupled receptor agonists and antagonists” (The General Hospital Corporation, priority 1997, dated 2006).

What was measured:
human PTH/PTHrP receptor [1] = molecular target: T1, human PTH/PTHrP receptor (Homo sapiens, UniProt Q03431); test: Cellular phosphate uptake in LLC-PK1 cells expressing human PTHR; assay type: cell-based; design: transfected with a full-length human PTH/PTHrP receptor cDNA; expressed in transfected cells; conditions: HKRK B28 and HKRK B7 cells; peptides 1000 nM, 6 hr
T1 sequence (Q03431 27-593): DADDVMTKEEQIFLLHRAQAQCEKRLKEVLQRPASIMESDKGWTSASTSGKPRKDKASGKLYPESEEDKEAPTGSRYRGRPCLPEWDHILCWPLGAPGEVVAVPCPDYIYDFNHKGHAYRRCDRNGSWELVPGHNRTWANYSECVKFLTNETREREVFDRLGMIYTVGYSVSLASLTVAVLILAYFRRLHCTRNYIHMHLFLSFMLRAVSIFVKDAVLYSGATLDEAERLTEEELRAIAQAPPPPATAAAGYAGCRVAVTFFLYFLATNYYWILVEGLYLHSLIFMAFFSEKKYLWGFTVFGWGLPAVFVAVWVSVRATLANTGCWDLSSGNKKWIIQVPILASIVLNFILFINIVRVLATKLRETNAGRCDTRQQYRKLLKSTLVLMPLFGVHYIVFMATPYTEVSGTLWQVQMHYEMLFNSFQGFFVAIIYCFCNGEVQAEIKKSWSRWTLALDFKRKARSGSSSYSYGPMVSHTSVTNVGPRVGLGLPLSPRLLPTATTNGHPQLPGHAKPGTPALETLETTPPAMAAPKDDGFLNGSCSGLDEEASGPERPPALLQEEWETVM
Protocol: FIG. 8. Regulation of phosphate uptake by PTH in HKRK B7 and HKRK B28 cells. […] Results are expressed as percentage of basal, and each bar represents the mean±SEM of a representative experiment performed in triplicate. Similar results were obtained from at least 5 individual experiments. Cells were seeded into 24-well plates at a density of 2.5×10^5 cells/well and cultured for a further 2 days before study. Twenty four hours before assay, cells were refed with 0.5 ml of DMEM containing 0.1% BSA. The next day, cells were refed with serum-free medium (DMEM+0.1% BSA) containing drugs or peptides, and the incubations were continued at 37° C. under 5% CO2 in air for another 6 hr. Cells then were washed with prewarmed Buffer B without BSA and Na2HPO4 and then were incubated at 37° C. for 5 min in 0.25 ml of the same buffer containing [^32P]orthophosphate (4 uCi/ml) and 0.1 mM Na2HPO4. Phosphate uptake was arrested by adding 1 ml of ice-cold sodium-free “stop buffer” [10 mM HEPES (pH 7.4), 140 mM choline chloride, and 5 mM sodium arsenate], followed by two further washes with same buffer. The drained cell layer then was solubilized in 0.5 ml of Lysis Buffer, and cell-associated radioactivity was determined by Cerenkov counting, as previously described (Guo, J., et al., Endocrinology 136:3884-3891 (1995)).

human PTH/PTHrP receptor [2] = molecular target: T1, human PTH/PTHrP receptor; test: Cellular cAMP accumulation in LLC-PK1 cells expressing human PTHR; assay type: cell-based; design: transfected with a full-length human PTH/PTHrP receptor cDNA; expressed in transfected cells; conditions: HKRK B28 cells; similar in HKRK B7
Protocol: Cells were seeded into 24-well plates at a density of 2.5×10^5 cells/well and cultured for a further 2 days before study. The cells were rinsed once with 0.5 ml of ice-cold Buffer B [10 mM HEPES (pH 7.4), 130 mM NaCl, 5 mM KCl, 1.2 mM CaCl2, 1 mM MgCl2, 1.2 mM Na2HPO^4 5 mM glucose, and 0.1% heat-inactivated BSA] supplemented with 1 mM isobtylmethylxanthine (IBMX), and placed on ice. Treatments were added to each well in 0.25 ml of IBMX-supplemented Buffer B, after which the plates were incubated at 37° C. for 15 min. The buffer then was rapidly aspirated, the plates were rapidly transferred onto liquid nitrogen, and the frozen monolayers were subsequently thawed directly into 0.5 ml of 50 mM HCl. The extracted cAMP then was measured using a commercial RIA kit (Dupont-New England Nuclear, Boston, Mass.). Results were expressed as fold-basal, where basal levels ranged between 38 and 128 pmol/mg protein/15 min. The basal level of cAMP accumulation in native LLC-PK1 cells was not consistently altered in subclones that expressed wild type PTH/PTHrp receptors.
Maximal PTH-dependent cAMP accumulation was assessed in the human PTHR-transfected LLC-PK1 subclones following incubation for 15 min with a high concentration (1000 nM) of hPTH(1-34) (Table 1). As reported previously for LLC-PK1 cells that stably expressed rat PTHRs (Guo, J., et al., Endocrinology 136:3884-3891 (1995)), the maximal adenylyl cyclase response was relatively independent of the surface density of human PTHRs above a relatively low threshold (relative to that required for PLC activation—see below). In the case of the human PTHR, however, this threshold for saturation of maximal AC activation appeared to lie between 120,000 and 280,000 (Table 1), which is at least 6 to 10-fold higher than that previously observed for the rat PTHR (Guo, J., et al., Endocrinology 136:3884-3891 (1995)).

human PTH/PTHrP receptor [3] = molecular target: T1, human PTH/PTHrP receptor; test: Cytosolic free calcium (fura-2) in LLC-PK1 cells expressing human PTHR; conditions: 100 nM peptide; HKRK B7 cells
Protocol: Cytosolic free calcium was measured in fura 2AM-loaded confluent monolayers of cells.
Cytosolic free calcium was measured by dual fluorescence in cells loaded with the Ca^2+-sensitive intracellular probe fura-2. Cells were seeded onto glass coverslips at a density of 40,000-600,000/cm^2 and incubated for 2 days as described above. Coverslips were washed twice with PBS before loading in phosphate-free Buffer B containing 4 uM of fura-2/AM (Molecular Probes, Eugene, Oreg.) for 30 min at room temperature (22° C.). After washing twice with fura-free Buffer B, the coverslips were mounted in a cuvette containing 2 ml of phosphate-free Buffer B at 37° C. and the emission at 510 nm in response to alternating excitation at 340 and 380 nm was monitored using a ratiometric PTI Deltascan fluorescence spectrometer with excitation and emission bandwidths of 2 nm. After achieving a stable baseline, agonists were introduced by exchange into 2 ml of fresh buffer to which 10-20 ul of concentrated agonist stock (or vehicle alone) had been added. Peptide stocks were prepared in 0.1% trifluoroacetic acid, ionomycin and phorbol esters were dissolved in dimethyl sulfoxide and all other additives were prepared in water. Maximum and minimum fluorescence signals were obtained by exposure to modified buffers containing 1 uM ionomycin plus 20 mM calcium or 2 mM EGTA in the nominal absence of calcium, respectively, and autofluorescence was estimated from signals obtained in the presence of ionomycin plus 2.5 mM MnCl2.

**Q.** With hPTH(1-31) as the substance, how does the “maximal activation of phosphate uptake (in words)” value (human PTH/PTHrP receptor [1]) read?
**A.** comparable maximal activation of phosphate uptake

**Q.** And the “activation of AC (in words)” value (human PTH/PTHrP receptor [2])?
**A.** indistinguishable from that to hPTH(1-34)

**Q.** What about the “cytosolic free calcium transients” value (human PTH/PTHrP receptor [3]) of the same substance?
**A.** fully activated cytosolic free calcium transients
